The record followed here is the supplement of paper PMC9170038.

The data set has as its system MS2 coat protein. Nature of the data set: apparent KD of MS2 coat protein; designed switch direction (-1 OFF switch, 1 ON switch): -1; higher = weaker reporter binding. The essentials: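 The reported apparent KD is a per-design median over clusters, from curve fits of normalised cluster fluorescence. Protein titrations used SNAP-549-labelled MS2 coat protein, doubled from 0.7 or 1.5 nM to 3 µM, in Tris-HCl pH 7.5 buffer with KCl, MgCl2, BSA, DTT, tRNA and Tween-20, with no input, 200 uM small-molecule ligand, or an oligonucleotide input. The RNA switches were transcribed on Illumina chips by stalled E. coli RNA polymerase.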

Setting [1] is: Eterna round: R95, input ligand: microRNA oligo, concentration not stated.
[2] abbreviates: input ligand: microRNA oligo, concentration not stated.
The mark [3] stands for this setting: Eterna round: R95, input ligand: FMN 200 uM.
Setting [4] is: Eterna round: R95, input ligand: none.

In the case of “ACCUCACAUGAGGAUCACCCAUGUUAGGAUAUCUCGGCGCCCUGCAGGCAGUGGCACCAGAGAAGGAACGUGCA [Xeindiisti] (puzzle: Exclusion 1)”, the “apparent KD of MS2 coat protein” value under setting [1] was 20.4 nM.
Turning to “ACGCCUCCUGUUAGGAUAUGCAUCGGGCUUCCGCAGCAGAAGGAACAUGAGGAUCACCCAUGUCAAAUAAAAUC [Raleed] (puzzle: Brourd's mod of Exclusion 4)”, under setting [1], the “apparent KD of MS2 coat protein” value was 17 nM.
As to “ACGCGAUAUGGCGUAACGCGACAUGAGGAUCACCCAUGUAACGAGGAUAUGAUCUCGAGAGAGGGUCAGAAGGCGUUACAAUAU [Eternabot solution 23] (Eterna round: R96, puzzle: Exclusion NG 3)”, the “apparent KD of MS2 coat protein” value by setting is: (input ligand: FMN 200 uM) 130 nM; under setting [2], 70.7 nM; (input ligand: none) 74.3 nM.
Consider “ACGCGUGGCUAGGAUAUGCAGAAAUCUAGCCAGGCAGAAGGAGCCACAUGAGGAUCACCCAUGUGGUGAUCCUC [eternacac ex6r4 sub1] (Eterna round: R97, puzzle: Exclusion 6)”, for which the “apparent KD of MS2 coat protein” value is 10.8 nM (input ligand: FMN 200 uM) and 9.98 nM (input ligand: none).
For “ACGGUGGUCCGAGAACAUGAGGAUCACCCAUGUGACAAAACCAAGGAUAUAGACGGACCGCCCGACUAGAAGGUGGAAAGAAAA [Aronlema] (Eterna round: R96, puzzle: Exclusion NG 3)”, the “apparent KD of MS2 coat protein” value by setting is: (input ligand: FMN 200 uM) 90.2 nM; under setting [2], 41.1 nM; (input ligand: none) 77.9 nM.
For the sequence “ACGUAUCAUGUCAGGAUAUAGCUAGCUACGGCUAGCUAGAAGGGACAUGAGGAUCACCCAUGUCAAAGAUACGU (puzzle: Brourd's mod of Exclusion 4)”, the “apparent KD of MS2 coat protein” value under setting [1] came to 13.2 nM.
Take “ACGUGAUACCUGUCGGUGGACAUGAGGAUCACCCAUGUAAGCUUUUUGCUCGUCUUAUAACCCGGUGACAGACCUUC [Racequbebe] (puzzle: Sensor v3, turn-off variant 1)”: the “apparent KD of MS2 coat protein” value came out at 97.7 nM under setting [3], 544 nM under setting [1] and 142 nM under setting [4].
As to “ACGUGAUAUCUGUCGGUGGACAUGAGGAUCACCCAUGUAAGCUUUUUGCUCGUCUUACAACCCGGUGACAGACCUUC [Essodiis] (puzzle: Sensor v3, turn-off variant 1)”, the “apparent KD of MS2 coat protein” value stood at 138 nM under setting [3], 275 nM under setting [1] and 166 nM under setting [4].
“ACGUGAUAUCUGUCGGUGGACAUGAGGAUCACCCAUGUAAGCUUUUUGCUUGUCUUAUAACCCGGUGACAGACCUUC [Inxeer] (Eterna round: R96, puzzle: Sensor v3, turn-off variant 1)”: the “apparent KD of MS2 coat protein” value is, setting by setting: (input ligand: FMN 200 uM) 35.5 nM; under setting [2], 349 nM; (input ligand: none) 35.1 nM.
Turning to “ACGUGAUAUCUGUCGGUGGACAUGAGGAUCACCCAUGUAAGCUUUUUGCUUGUCUUAUAACCCGGUGACAGACCUUC [Inxeer] (puzzle: Sensor v3, turn-off variant 1)”, the “apparent KD of MS2 coat protein” value runs as follows: under setting [3], 23.1 nM; under setting [1], 540 nM; under setting [4], 26.5 nM.
Consider “ACGUGAUAUCUGUCGGUGGACAUGAGGAUCACCCAUGUGAGCUUUUUGCUCGUCUUACAACCCGGUGACAGACCUUC [Bebitier] (puzzle: Sensor v3, turn-off variant 1)”, for which the “apparent KD of MS2 coat protein” value is, setting by setting: under setting [3], 23.6 nM; under setting [1], 262 nM; under setting [4], 21.4 nM.
Turning to “ACGUUGUCAGGAUAUCGUUAAUUUAGUUGUUUGUAUUAGUUCGAGAAGGGACAUGAGGAUCACCCAUGUUUGAA [Ex4 #34] (Eterna round: R97, puzzle: Exclusion 4)”, the “apparent KD of MS2 coat protein” value turned out to be 36.2 nM (input ligand: FMN 200 uM) and 31.5 nM (input ligand: none).
The like results for “ACUAAGGUAGGAUAUACGUGCGUGAUCGUGCCUUAGCUGGCACAUGAGGAUCACCCAUGUAGAAGGGCCAGACA [Esraleon] (Eterna round: R97, puzzle: Exclusion 2)” were, in that order, 17.4 nM and 19.8 nM.
The corresponding values for “ACUCAGUGAGGAUAUCGCCAGAGAACCGUAACGGUCUCUGAUGAGAAGGCACAUGAGGAUCACCCAUGUAAGCA [EX4 C.3] (Eterna round: R97, puzzle: Exclusion 4)” are 278 nM and 174 nM.
For “ACUCGACAUGAGGAUCACCCAUGUGAGGAUAUGGCCUGUAUGGCGUGAGCUGGCUCAGUCAGAAGGCGCGUGGG [salish99_ex1_r4_047] (Eterna round: R97, puzzle: Exclusion 1)”, the “apparent KD of MS2 coat protein” value runs as follows: (input ligand: FMN 200 uM) 151 nM; (input ligand: none) 123 nM.
For the sequence “ACUCGACAUGAGGAUCACCCAUGUGAGGAUAUGGCCUGUAUGGCGUGAGCUGGCUCUGUCAGAAGGCGCGUGGG [salish99_ex1_r4_046] (Eterna round: R97, puzzle: Exclusion 1)”, the “apparent KD of MS2 coat protein” value by setting is: (input ligand: FMN 200 uM) 55.5 nM; (input ligand: none) 59 nM.
As to “ACUCUUCCUGUUAGGAUAUGCAUCGGGCUUCCGCAGCAGAAGGAACAUGAGGAUCACCCAUGUCAAAUAAAAUC (Eterna round: R97, puzzle: Brourd's mod of Exclusion 4)”, the “apparent KD of MS2 coat protein” value reads like this: (input ligand: FMN 200 uM) 33.1 nM; (input ligand: none) 17.4 nM.
The corresponding values for “ACUCUUCUAGUUAGGAUAUGCAUCGGGCUUCCGCAGCAGAAGGAACAUGAGGAUCACCCAUGUCAAAUAAAAUC (Eterna round: R97, puzzle: Brourd's mod of Exclusion 4)” are 34.8 nM and 20.6 nM.
For “ACUGGAGCAGGAUAUAUAUGACGUGCUUCGGCACGAAGGUCACAUGAGGAUCACCCAUGUAGAAGGGCUCCAGU [E2/9-D1] (Eterna round: R97, puzzle: Exclusion 2)”, the “apparent KD of MS2 coat protein” value runs as follows: (input ligand: FMN 200 uM) 225 nM; (input ligand: none) 46.7 nM.
As to “ACUGUUUGAUACCUCUAAUACAUGAGGAUCACCCAUGUUAUCGAGGAUAUGCAUUAGAGUGGUUAGCAGAAGGCGAAGUAAUUG [JR_ExcNG3_Sub031] (Eterna round: R96, puzzle: Exclusion NG 3)”, the “apparent KD of MS2 coat protein” value came to 17 nM (input ligand: FMN 200 uM), 14.2 nM under setting [2] and 21.6 nM (input ligand: none).
As to “ACUUAUUGAGGAUAUACAGAUUAUUACAUGAGGAUCACCCAUGUUCUUCAAUGUAUAUAUGUAGAAGGCAGAAGAU [Mat - Exclusion 5 - JL Mod - D15] (Eterna round: R97, puzzle: Exclusion 5)”, the “apparent KD of MS2 coat protein” value (input ligand: FMN 200 uM) is 177 nM and the “apparent KD of MS2 coat protein” value (input ligand: none) was 57.5 nM.
“ACUUAUUGAGGAUAUACAUAAAUUUACAUGAGGAUCACCCAUGUUCUUCUAUGUAUAUAUGUAGAAGGCAGAAGAU [Mat - Exclusion 5 - JL Mod - D32] (Eterna round: R97, puzzle: Exclusion 5)”: the “apparent KD of MS2 coat protein” value runs as follows: (input ligand: FMN 200 uM) 29.2 nM; (input ligand: none) 19.3 nM.
As to “ACUUCGUCAGGAUAUCGAGUGACCAAGUACACUGGCUUGGCUGAGAAGGGACAUGAGGAUCACCCAUGUGGGAG [Eternabot (L1) Solution 52] (Eterna round: R97, puzzle: Exclusion 4)”, the “apparent KD of MS2 coat protein” value runs as follows: (input ligand: FMN 200 uM) 356 nM; (input ligand: none) 187 nM.
With “AGAAACUCAAGAGGAUAUCACAUGAGGAUCACCCAUGUAUAGCGCGCUAUGCUAGUCCUCGUAUUUGAGAAGGUUUGAUAAAUG [Mat - Exclusion NG 2 - Mod of JL - D78] (Eterna round: R96, puzzle: Exclusion NG 2)”, the “apparent KD of MS2 coat protein” value reads like this: (input ligand: FMN 200 uM) 16.2 nM; under setting [2], 14.2 nM; (input ligand: none) 16.9 nM.
“AGAAGAAAAGAGAUUUGCUCGUCUUAUAAGUAUGAAGUAACAUGAGGAUCACCCAUGUAAGUCUAGUGAGAAGGAAG [JR_SV3TOV2_Sub001] (puzzle: Sensor v3, turn-off variant 2)”: the “apparent KD of MS2 coat protein” value under setting [3] amounted to 22.9 nM, the “apparent KD of MS2 coat protein” value under setting [1] was determined as 50 nM and the “apparent KD of MS2 coat protein” value under setting [4] is 24.4 nM.
As to “AGAAGUGCCGAGGAUAUCCAGGCAAUCUCGUUCGGAGAAGGCGGCACUUGAGGAUCACCCAAGUGCUCCUAAGA [Islariat] (Eterna round: R97, puzzle: Exclusion 6)”, the “apparent KD of MS2 coat protein” value (input ligand: FMN 200 uM) was determined as 52.1 nM and the “apparent KD of MS2 coat protein” value (input ligand: none) turned out to be 14.1 nM.
“AGACAGUCAGGAUAUACAUGAGGAUCACCCAUGUUAAGAAGAGAAAGGGCAGGAAGAGGUAGAAGGGACAAGAA [JR_Exclu3_Sub033] (puzzle: Exclusion 3)”: the “apparent KD of MS2 coat protein” value by setting is: under setting [3], 21.1 nM; under setting [1], 23.6 nM; under setting [4], 29.5 nM.
In the case of “AGAGAAAAUCUAGGAUAUGUGUAUGCCGCGUGCGCAGAAGGAGACAUGAGGAUCACCCAUGUAAAGAGACAGAAGACGACCAAA [Matt's Exclusion] (Eterna round: R96, puzzle: Exclusion NG 1)”, the “apparent KD of MS2 coat protein” value by setting is: (input ligand: FMN 200 uM) 55.7 nM; under setting [2], 38.7 nM; (input ligand: none) 67.5 nM.
As to “AGAGUACUGCGAGGAUAUACAUGAGGAUCACCCAUGUGGUGGUGUGAGGCAAAGCCUCACACCAUGUAGAAGGCGCAGUACUCA [Mat - Exclusion NG 2 - Mod of JL - D20] (Eterna round: R96, puzzle: Exclusion NG 2)”, the “apparent KD of MS2 coat protein” value (input ligand: FMN 200 uM) is 159 nM, the “apparent KD of MS2 coat protein” value under setting [2] was 26.6 nM and the “apparent KD of MS2 coat protein” value (input ligand: none) is 42.3 nM.
For “AGAGUGCUGCGAGGAUAUACAUGAGGAUCACCCAUGUAAACCUGUGAGGCAAAGCCUCACAGGAUGUAGAAGGCGCAGUACUCA [Mat - Exclusion NG 2 - Mod of JL - D40] (Eterna round: R96, puzzle: Exclusion NG 2)”, the “apparent KD of MS2 coat protein” value by setting is: (input ligand: FMN 200 uM) 20 nM; under setting [2], 8.82 nM; (input ligand: none) 19.5 nM.
